Measurements published in patent US20150335669A1 (SAMSUNG ELECTRONICS, published 2015).

B1: PEG-introduced antibody L3-1Y/IgG2 with 30 kDa polyethyleneglycol (antibody, V domains shown)
VH: EVQLVESGGGLVQPGGSLRLSCAASGFTFTDYYMSWVRQAPGKGLEWLGFIRNKANGYTTEYSASVKGRFTISRDNSKNTLYLQMNSLRAEDTAVYYCARDNWFAYWGQGTLVTVSS
VL: DIQMTQSPSSLSASVGDRVTITCKSSQSLLASGNQNNYLAWYQQKPGKAPKMLIIWASTRVSGVPSRFSGSGSGTDFTLTISSLQPEDFATYYCQQSYSRPYTFGQGTKVEIKR
modifications: see heavy chain: the PEG may stand at the N-terminus of a light chain instead; 30 kDa methoxypolyethyleneglycol at the N-terminus of the antibody (N-terminus of a heavy chain or of a light chain; which one is not resolved); mono-PEG per paragraph 213
notes: also called 30kPEG Ab; mono-PEG antibody (30 kDa)
B2: AbF46, mouse monoclonal antibody to c-Met (hybridoma KCLRF-BP-00220) (antibody, V domains shown)
VH: EVKLVESGGGLVQPGGSLRLSCATSGFTFTDYYMSWVRQPPGKALEWLGFIRNKANGYTTEYSASVKGRFTISRDNSQSILYLQMDTLRAEDSATYYCARDNWFAYWGQGTLVTVSA
VL: DILMTQSPSSLTVSAGEKVTMSCKSSQSLLASGNQNNYLAWHQQKPGRSPKMLIIWASTRVSGVPDRFIGSGSGTDFTLTINSVQAEDLAVYYCQQSYSAPLTFGAGTKLELK
notes: Tested as hybridoma culture supernatant in the selection ELISA; also called mouse antibody AbF46
B3: anti-c-Met antibody L3-1Y-IgG2 (huAbF46-H4-A1 (IgG2 Fc)) (antibody, V domains shown)
VH: B1 VH
VL: B1 VL
notes: also called antibody with no PEG
B4: PEG-introduced antibody L3-1Y/IgG2 with 10 kDa polyethyleneglycol (antibody, V domains shown)
VH: B1 VH
VL: B1 VL
modifications: see heavy chain: the PEG may stand at the N-terminus of a light chain instead; 10 kDa methoxypolyethyleneglycol at the N-terminus of the antibody (N-terminus of a heavy chain or of a light chain; which one is not resolved); mono-PEG per paragraph 213
notes: also called 10kPEG Ab; mono-PEG antibody (10 kDa)
B5: PEG-introduced antibody L3-1Y/IgG2 with 20 kDa polyethyleneglycol (antibody, V domains shown)
VH: B1 VH
VL: B1 VL
modifications: see heavy chain: the PEG may stand at the N-terminus of a light chain instead; 20 kDa methoxypolyethyleneglycol at the N-terminus of the antibody (N-terminus of a heavy chain or of a light chain; which one is not resolved); mono-PEG per paragraph 213
notes: also called 20kPEG Ab; mono-PEG antibody (20 kDa)

How the values were obtained:
[1] = molecular target: T1, human c-Met/Fc fusion protein (R&D Systems) (human, UniProt P08581 25-932); test: SPR, Biacore T100; antibody captured by human Fab binder on CM5 chip, c-Met-Fc injected
T1 construct: Bought reagent; treated here as the same reagent; also called c-Met-Fc (#358-MT/CF, R&D Systems); human c-Met/Fc protein; not shown: Fc part of the bought fusion protein
T1 sequence (P08581 25-932 limits assumed): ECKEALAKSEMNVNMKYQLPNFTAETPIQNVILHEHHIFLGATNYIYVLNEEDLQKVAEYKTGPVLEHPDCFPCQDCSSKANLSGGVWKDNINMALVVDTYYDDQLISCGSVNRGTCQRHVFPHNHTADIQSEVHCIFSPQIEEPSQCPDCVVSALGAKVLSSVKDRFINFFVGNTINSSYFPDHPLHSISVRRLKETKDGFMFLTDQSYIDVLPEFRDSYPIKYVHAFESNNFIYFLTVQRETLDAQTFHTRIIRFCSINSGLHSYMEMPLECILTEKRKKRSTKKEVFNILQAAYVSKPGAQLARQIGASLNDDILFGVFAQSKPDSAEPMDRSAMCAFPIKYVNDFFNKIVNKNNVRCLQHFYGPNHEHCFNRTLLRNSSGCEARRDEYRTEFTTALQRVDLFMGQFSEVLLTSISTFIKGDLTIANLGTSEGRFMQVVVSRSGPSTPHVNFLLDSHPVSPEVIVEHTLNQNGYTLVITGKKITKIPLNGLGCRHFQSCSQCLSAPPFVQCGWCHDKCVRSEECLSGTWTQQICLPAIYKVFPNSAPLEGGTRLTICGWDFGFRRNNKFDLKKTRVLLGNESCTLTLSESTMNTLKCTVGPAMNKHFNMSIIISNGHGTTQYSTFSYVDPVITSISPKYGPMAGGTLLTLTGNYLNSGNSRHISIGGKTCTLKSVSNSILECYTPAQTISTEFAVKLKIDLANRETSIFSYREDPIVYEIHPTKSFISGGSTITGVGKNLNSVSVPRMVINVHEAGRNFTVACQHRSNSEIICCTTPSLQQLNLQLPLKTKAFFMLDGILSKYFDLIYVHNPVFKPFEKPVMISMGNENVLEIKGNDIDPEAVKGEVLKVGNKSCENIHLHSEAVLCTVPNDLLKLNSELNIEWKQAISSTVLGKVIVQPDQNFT
Protocol: To confirm whether the prepared PEG-introduced antibodies containing PEG with various molecular weights can maintain the binding affinity to the antigen, the binding affinity of the prepared PEG-introduced antibodies to c-Met was measured using Biacore T100(GE) and compared with that of an antibody with no PEG (Ab).
In particular, human Fab binder (GE Healthcare) was fixed on a surface of CM5 chip (#BR-1005-30, GE) according to the manufacturer's manual. About 90 to 120 Ru of each of the PEG-introduced antibodies was captured, and c-Met-Fc (#358-MT/CF, R&D Systems) was injected at various concentrations into the captured PEG-introduced antibody. 10 mM Glycine-HCl (pH 1.5) solution was injected thereto to regenerate the surface. In order to measure affinity, the data obtained from this experiment was fitted using BIAevaluation software (GE Healthcare, Biacore T100 evaluation software).

[2] = molecular target: T1, human c-Met/Fc fusion protein (R&D …); test: ELISA, human c-Met/Fc fusion protein coated on the plate, hybridoma culture supernatant
Protocol: The hybridoma cell culture obtained in Reference Example 1.1.2 was added in an amount of 50 μL to each well of the plates and incubated for 1 hour. The cells remaining unreacted were washed out with a sufficient amount of Tris-buffered saline and Tween 20 (TBST). Goat anti-mouse IgG-horseradish peroxidase (HRP) was added to the plates and incubated for 1 hour at room temperature. The plates were washed with a sufficient amount of TBST, followed by reacting the peroxidase with a substrate (OPD). Absorbance at 450 nm was measured on an ELISA reader.

| Binder | Kd [1] [nM] | binding result [2] |
| --- | --- | --- |
| B1 | 0.0619 | – |
| B2 | – | binds |
| B3 | 0.0823 | – |
| B4 | 0.0859 | – |
| B5 | 0.0729 | – |
